Experiment [1] has as its target actin (UniProt P68135). In words: MST.
The target in experiment [2] is plasminogen (affinity column for M. pneumoniae lysate; microscale thermophoresis). In words: MST; fluorescently labelled host protein, Ef-Tu unlabelled; 40%, 60% and 80% MST power, 30 s.
Experiment [3] deals with fetuin (UniProt P12763). Described as above.

In PMC5593925 one finds Kd data, which are given here for 2 substances.

pKd: −log10 of the molar value.

Chain of UniProt P12763 (P12763 19-359): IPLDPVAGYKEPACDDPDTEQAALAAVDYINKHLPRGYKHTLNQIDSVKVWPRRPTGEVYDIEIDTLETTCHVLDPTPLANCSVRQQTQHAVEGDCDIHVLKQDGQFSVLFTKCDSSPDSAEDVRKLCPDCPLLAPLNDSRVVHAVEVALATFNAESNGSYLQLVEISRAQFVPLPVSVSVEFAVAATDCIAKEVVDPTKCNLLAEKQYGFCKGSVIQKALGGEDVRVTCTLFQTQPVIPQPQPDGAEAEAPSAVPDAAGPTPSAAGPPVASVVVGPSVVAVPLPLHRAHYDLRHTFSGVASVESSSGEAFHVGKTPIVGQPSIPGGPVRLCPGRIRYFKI

With “recombinant Elongation factor Tu of Mycoplasma pneumoniae (from UniProt P23568 1-394) (natural protein)”, the figures for the pKd in experiment [1] and in experiment [2] were 7.72 and 6.03, respectively.
In experiment [3], “recombinant Elongation factor Tu of Mycoplasma pneumoniae (from UniProt P23568 1-394) (natural protein; other documents disagree on this pair)” showed a pKd of 7.28.
